Here are results for two substances from paper PMC9536601.

The target of experiment [1] is chimeric hexon of Ad5:H1.6 (Ad5 vector, hexon residues 112-593 from Ad1 hexon, HVR7 IGVTDRY), on the virion (human adenovirus type 5 | human adenovirus type 1) (UniProt P04133). Nature of the experiment: SPR; Biacore T200; about 300 to 5,000 RU of Ad virions immobilised on a CM5 chip, coagulation factors flowed over at four concentrations, 50 uL/min; 10 mM HEPES, 150 mM NaCl, 1 mM CaCl2, 0.5 mM MgCl2, 0.1% BSA, 0.05% polysorbate 20, pH 7.4; global fit to a 1:1 kinetic interaction model, double referencing.

Experiment [2] addresses chimeric hexon of the Ad5 vector Ad5:H6.4 (Ad6 hexon section with HVR7 mutations, on virions) (human adenovirus 5 | human adenovirus 6) (UniProt P04133). Description: SPR; Biacore T200; about 300 to 5,000 RU of Ad virions immobilised on a CM5 chip, coagulation factors flowed over at four concentrations, 50 uL/min; running buffer 10 mM HEPES, 150 mM NaCl, 1 mM CaCl2, 0.5 mM MgCl2, 0.1% BSA, 0.05% polysorbate 20, pH 7.4; regeneration with 3 mM EDTA; global fit to a 1:1 kinetic interaction model, double referencing.

Consider “mouse coagulation factor X (from UniProt O88947 41-481) (natural protein)”, for which, in experiment [1], the Kd is 4.2 µM. Besides, in experiment [2], the Kd was found to be 0.095 µM, the off-rate (koff) was 0.0169 s⁻¹ and the association rate constant (kon) was 178000 M⁻¹ s⁻¹.

“mouse prothrombin (coagulation factor II) (from UniProt P19221 44-618) (natural protein)”: in experiment [2], the dissociation constant Kd is 32 µM, the koff was found to be 0.563 s⁻¹ and the kon stood at 17800 M⁻¹ s⁻¹.
